From the supplement of paper PMC7125110
± gives the standard error. For some of these results: This sample holds only a part of the variants without activity.

B1: glmS ribozyme (parent)
chain: AUAAAAGCGCCAGAACUACAGAAAUGUAGUUGACGAGGAGGAGGUUUAUCGAAUUUUCGGCGGAUGCCUCCAAA

Legend:
Details in all cases: with glucosamine-6-phosphate
glucosamine-6-phosphate [1] = variants of: B1; experiment: kcat; higher = faster cleavage; RNA array
In short: (§1)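 The measurements used barcoded ribozyme variants on sequenced MiSeq chips, transcribed in situ by E. coli RNA polymerase and tracked at 37 °C with a hybridised Cy3 probe. Glucosamine-6-phosphate, 40 μM to 10 mM in HEPES/KCl/Mg(OAc)2 buffer, was flowed in while tiles were imaged over ~14 h. Baseline-normalised signals, also normalised to non-cleaving reference variants, gave per-tile medians that were fit to one- or two-exponential decays for kobs. kcat and KM resulted from weighted Michaelis–Menten fits across concentrations.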

glucosamine-6-phosphate [2] = variants of: B1; experiment: KM; higher = weaker cofactor use; RNA array
In short: as §1

glucosamine-6-phosphate [3] = variants of: B1; experiment: self-cleavage kobs at 160 uM GlcN6P; higher = faster cleavage; RNA array
In short: as §1

glucosamine-6-phosphate [4] = variants of: B1; experiment: self-cleavage kobs at 640 uM GlcN6P; higher = faster cleavage; RNA array
In short: as §1

glucosamine-6-phosphate [5] = variants of: B1; experiment: self-cleavage kobs at 2500 uM GlcN6P; higher = faster cleavage; RNA array
In short: as §1

glucosamine-6-phosphate [6] = variants of: B1; experiment: self-cleavage kobs at 10000 uM GlcN6P; higher = faster cleavage; RNA array
In short: as §1

glucosamine-6-phosphate [7] = variants of: B1; experiment: self-cleavage kobs at 40 uM GlcN6P; higher = faster cleavage; RNA array
In short: as §1

Row | Variant | kcat (glucosamine-6-phosphate [1]) [s⁻¹] | KM (glucosamine-6-phosphate [2]) [µM] | self-cleavage kobs at 160 uM GlcN6P (glucosamine-6-phosphate [3]) [s⁻¹] | self-cleavage kobs at 640 uM GlcN6P (glucosamine-6-phosphate [4]) [s⁻¹] | self-cleavage kobs at 2500 uM GlcN6P (glucosamine-6-phosphate [5]) [s⁻¹] | self-cleavage kobs at 10000 uM GlcN6P (glucosamine-6-phosphate [6]) [s⁻¹] | self-cleavage kobs at 40 uM GlcN6P (glucosamine-6-phosphate [7]) [s⁻¹]
1 | U31C C34G | 1.37e-05 ± 8.9e-07 | 1370 ± 240 |  |  |  |  | 
2 | C16G U46A | 0.000198 ± 1.7e-05 | 676 ± 180 | 4.2e-05 ± 2e-05 | 9.94e-05 ± 2.2e-05 | 0.000146 ± 2.2e-05 | 0.000213 ± 4.4e-05 | 
3 | A53C U54A | 0.00804 ± 0.0035 |  | 0.000353 ± 9.2e-05 | 0.00128 ± 0.00018 | 0.00277 ± 0.00065 | 0.00747 ± 0.00098 | 0.000184 ± 2.3e-05
4 | U30G C68G | 3.09e-05 ± 2.2e-06 | 120 ± 57 |  |  | 3.26e-05 ± 1.2e-05 | 2.71e-05 ± 1.3e-05 | 
5 | A12G A64C | < 1e-05 |  |  |  |  |  | < 1e-05
6 | C10U U47C U56G C68U U69A | < 1e-05 | 429 ± 190 |  | < 1e-05 |  | < 1e-05 | 
7 | G59A C70U | 0.000157 ± 9e-06 | 1970 ± 320 |  | 4.24e-05 ± 8e-06 | 8.29e-05 ± 9.8e-06 | 0.000133 ± 1.1e-05 | 
8 | A6C A12C | 4.52e-05 ± 3.2e-06 | 1190 ± 370 |  |  | 2.86e-05 ± 7.1e-06 | 4.11e-05 ± 6.6e-06 | 
9 | G29C U54C | 0.00154 ± 0.00063 |  | 0.000153 ± 2.5e-05 | 0.000301 ± 7.9e-05 | 0.000773 ± 0.00014 | 0.0019 ± 0.00032 | 6.42e-05 ± 1.4e-05
10 | U47C C70A | 0.000334 ± 9.1e-05 |  |  | 0.000119 ± 2.1e-05 | 0.000426 ± 9.7e-05 | 0.000264 ± 4.8e-05 | 
11 | C16A C68A | 1.91e-05 ± 5.8e-06 |  |  |  |  |  | 
12 | C16A U57A | 2.09e-05 ± 4.3e-06 |  | < 1e-05 |  |  |  | < 1e-05
13 | C10A C71G | 3.78e-05 ± 1.3e-05 |  |  | 5.99e-05 ± 2e-05 |  |  | 
14 | G13U A48U | < 1e-05 |  | < 1e-05 |  |  |  | 
15 | A14G G32C A53U | 0.000218 ± 7.2e-05 |  |  | 4.08e-05 ± 2e-05 | 6.01e-05 ± 1.8e-05 | 0.000144 ± 2.8e-05 | 
16 | G13U C67U | 0.000313 ± 1.9e-05 | 1680 ± 230 | 2.74e-05 ± 7.6e-06 | 8.78e-05 ± 1.1e-05 | 0.000177 ± 2e-05 | 0.000274 ± 2.4e-05 | 
17 | C10U A53U | 1.55e-05 ± 3.9e-06 |  |  |  |  |  | 
18 | G9U G59A | < 1e-05 |  |  |  | < 1e-05 |  | < 1e-05

Row | Variant | kcat (glucosamine-6-phosphate [1]) [s⁻¹] | KM (glucosamine-6-phosphate [2]) [µM] | self-cleavage kobs at 160 uM GlcN6P (glucosamine-6-phosphate [3]) [s⁻¹] | self-cleavage kobs at 640 uM GlcN6P (glucosamine-6-phosphate [4]) [s⁻¹] | self-cleavage kobs at 2500 uM GlcN6P (glucosamine-6-phosphate [5]) [s⁻¹] | self-cleavage kobs at 10000 uM GlcN6P (glucosamine-6-phosphate [6]) [s⁻¹] | self-cleavage kobs at 40 uM GlcN6P (glucosamine-6-phosphate [7]) [s⁻¹]
19 | A42G C70G | 0.000261 ± 5.1e-05 | 261 ± 120 | 8.07e-05 ± 1.4e-05 | 0.000216 ± 2.7e-05 | 0.000414 ± 6.1e-05 | 0.000223 ± 2.5e-05 | 4.1e-05 ± 7.7e-06
20 | U47G C70A | 0.000101 ± 9.5e-06 |  | 0.000107 ± 1.5e-05 | 9.99e-05 ± 1.3e-05 | 0.000111 ± 1.3e-05 | 8.94e-05 ± 8.5e-06 | 3.74e-05 ± 1.6e-05
21 | A48U C71A | 0.000129 ± 1.2e-05 | 1380 ± 540 |  |  | 0.000102 ± 2.6e-05 | 0.000111 ± 1.4e-05 | 
22 | A48U C71G | 4.92e-05 ± 1e-05 |  |  | 4.04e-05 ± 7.5e-06 | 6.5e-05 ± 9.8e-06 | 3.69e-05 ± 8e-06 | 
23 | G62U C71A | < 1e-05 |  |  |  | < 1e-05 |  | < 1e-05
24 | A12C U56G | 0.0146 ± 0.003 | 3360 ± 910 | 0.000652 ± 0.00018 | 0.00336 ± 0.00068 | 0.0054 ± 0.0014 | 0.0111 ± 0.0018 | 0.000162 ± 2.5e-05
25 | C10A A39G | < 1e-05 |  | < 1e-05 | < 1e-05 |  |  | 
26 | U46C U65A | 0.00399 ± 0.0019 |  |  | 0.000444 ± 0.00012 | 0.00143 ± 0.00037 | 0.00295 ± 0.00065 | 7.93e-05 ± 2.3e-05
27 | A52G A64C C70A | 1.92e-05 ± 6.2e-06 |  |  |  |  |  | 
28 | A15U U69G | 5.2e-05 ± 1.9e-05 |  | 4.3e-05 ± 1.3e-05 |  | 6.85e-05 ± 2.1e-05 |  | 
29 | U49A C70U | 2.22e-05 ± 1.1e-05 |  |  |  | 3.89e-05 ± 1.9e-05 |  | 
30 | U45G C70A | 0.000251 ± 5.4e-05 |  |  | 0.000111 ± 2.5e-05 | 0.000364 ± 0.00011 | 0.000215 ± 4.3e-05 | 
31 | U56C C71A | 4.36e-05 ± 8.2e-06 |  |  |  | 5.14e-05 ± 1.2e-05 | 3.76e-05 ± 9e-06 | 
32 | U31C A39U | 0.00686 ± 0.0022 | 6250 ± 2600 | 0.000146 ± 1.5e-05 | 0.000692 ± 6.8e-05 | 0.00175 ± 0.00023 | 0.00432 ± 0.00036 | 7.06e-05 ± 8.4e-06
33 | A15U C50U | 2.32e-05 ± 2.6e-06 |  |  |  |  |  | 
34 | U45C U46G | 0.00122 ± 0.00043 | 2110 ± 1100 | 7.78e-05 ± 1.5e-05 | 0.000322 ± 8.8e-05 | 0.000911 ± 0.00015 | 0.000685 ± 0.00025 | 
35 | A39G A53U | 0.0202 ± 0.0043 | 805 ± 260 | 0.00271 ± 0.00057 | 0.0101 ± 0.0016 | 0.0119 ± 0.0027 | 0.0229 ± 0.0041 | 0.00108 ± 0.00016
36 | U45C C67A | 0.00652 ± 0.00083 | 2490 ± 470 | 0.000424 ± 0.00012 | 0.00119 ± 0.00026 | 0.00392 ± 0.0013 | 0.00519 ± 0.001 | 0.000122 ± 4.8e-05
